Measured values published in the nanobody polyreactivity screen of Harvey et al. (2022).

assay: yeast display, Sf9 membrane polyspecificity reagent, FACS + sequencing; frameworks hold sequencing errors
Outline: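 Nanobodies came from a synthetic yeast display library in Saccharomyces cerevisiae BJ5465, induced with galactose for 36–48 hours and stained for 1 hour at 4 °C with 10% biotinylated, detergent-solubilized Sf9 membrane reagent. Cells were enriched on streptavidin microbeads and then FACS-sorted, with low and high (top ~1%) gates set on anti-HA fluorescence for expression and streptavidin fluorescence for reagent binding. Each polyreactivity label reflects the gate a clone came from. Genes were amplified by colony PCR, sequenced by MiSeq 2 × 250 and filtered by CDR length.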

Row | Sequence | polyreactivity (PSR sort gate)
1 | QVQLVESGGGLVQAGGSLRLICAASGIIFYKYTMGWYRQAPGKERELVAAITKSGVRTYYADSVKGRFTISRDNAKNTVYLQMNSLKPEDTAVYYCAAKTPTKDRGSDFDYWGQGTQVTVSS | high polyreactivity
2 | QVQLVESGGGLVQAGGSLRLICAASGIIFYRYAMGWYRQAPGKEREFVAAISRGGGSTYYADSVKGRFTISRDNAKNTVYLQMNSLKPEDTAVYYCNARVTRVTVDQYSIKSMDYWGQGTQVTVSS | high polyreactivity
3 | QVQLVESGGGLVQAGGSLRLICAASGIILFYAMGWYRQAPGKERELVAAISSGGGTSYADSVKGRFTLSRDNAKKTVYLQMNSLKPEDTAVYYCAKTDGFYRGDGYWGQGTQVNVSS | low polyreactivity
4 | QVQLVESGGGLVQAGGSLRLICAASGITFTGYAMGWYREAPGKEREVVAPISKRGARTYYADSVKGRFTISRDNAKHTVYVQMNSLQPEDTAVYYCAVRRWGYWTGYRGLDYDYWGQGTQVTVSS | high polyreactivity
5 | QVQLVESGGGLVQAGGSLRLICAASGITFTQYAMGWYRQAPGNEREFVAGITISGSSTYYADSVKGRFTISRDNAKNTVYLQMNRLKPEDTAVYYCAAGVRRVYASGHGAYGYWGQGTQVTVSS | low polyreactivity
6 | QVQLVESGGGLVQAGGSLRLICAASGLIFPRYDMGWYRQAPGKERELVAAITSGGGTYYADSVKGRFTISRDNAKNTVYLQMNSLKPEDTAVYYCARDHYRHSRYFYRYDYWGQGTQVTVSS | low polyreactivity
7 | QVQLVESGGGLVQAGGSLRLICAASGLILKYYAMGWYRQAPGKEREFVAAITRRGGITYYADSVKGRFTISRDNAKNTVYLQMNSLKPEDTAVYYCAADPKLGSLAYWRYSYPLYDYWGQGTQVTVSS | low polyreactivity
8 | QVQLVESGGGLVQAGGSLRLICAASGLTFTKYAMGWYRQAPGKERELVATITSGGSTNYADSVKGRFTISRDNAKNTVYLQMNSLKPEDTAVYYCNRDNYKWPYWEFDYWGQGTQVTVSS | high polyreactivity
9 | QVQLVESGGGLVQAGGSLRLICAASGLTFYYYAMGWYRQAPGKERELVAASSTRGTSTYYADSVKGRFTISRDNSKNTVYLQMNSLKPEDTAVYYCAADSYPCGTGGDYWGQGTQVTVSS | high polyreactivity
10 | QVQLVESGGGLVQAGGSLRLICAASGNIFDVNAMGLYRQAPGKERELVAGITTNGGRTFYADSVKGRFTFSRDNAKNTVYLQMNSLKPEDTAVYYWNARHGRHRRTPFAKYDFWGQGTQVTVSS | high polyreactivity
11 | QVQLVESGGGLVQAGGSLRLICAASGNTFYRNAMGLYRQAPGKERELVAAIDYSAGSTYYADSVKWRFTISRDNAKYSVFFQMKSLNPEDTAVYYCAADARTSRGGRYYYWGQGTQVTVSS | low polyreactivity
12 | QVQLVESGGGLVQAGGSLRLICAASGRIFAYYAMGWYRHAPGKERELVAAISGSGRTYYADSVKGRFTISRDNAKYTVYLQMNSLKPEDTAVYYCNNVYSFYYTEGYDYWGQVTQVTVSS | high polyreactivity
13 | QVQLVESGGGLVQAGGSLRLICAASGRIFDGYAMGWYRQAPGKERELVAAISSDGGSTNYADSVKGRFTISRDNAKNTVYLQMNSLKPEDTAVYYCAESRLGEYLGYDYWGQGTQVTVSS | low polyreactivity
14 | QVQLVESGGGLVQAGGSLRLICAASGRIFGTNAKGWYRQAPGKERELVADITSGGSTNYADSVKGRFTISRDNAKNTVYLQMNSLKPEDTAVYYCAADVIGDLRWYRDEYWGQGTQVTVSS | low polyreactivity
15 | QVQLVESGGGLVQAGGSLRLICAASGRIFLTYAMGWYRQAPGKERELVAAISTSGTRTYYADSVKGRFTISRDTAKKTVYLQMNSLKPEDTAVYHCAREKYNYRTYEYWGQGTQVTVSS | high polyreactivity
16 | QVQLVESGGGLVQAGGSLRLICAASGRIFPSNAMGGSIQAPGKERELVAAINTGGSTYYADSVKGRFTISRDNAKNTVYLQMNSQKPEDTAVYYCAAARRYYYYWGQGTQVTVSS | high polyreactivity
17 | QVQLVESGGGLVQAGGSLRLICAASGRIFRYYAMGWSRQAPGKERELVAAIRSASSTYYADSVNGRFTISRDNAKITVYLKMNSLIPEDTSVYYCADRLYGVYKRRYYYWGQGTQVTVSS | high polyreactivity
18 | QVQLVESGGGLVQAGGSLRLICAASGRIFVPYVMGWYRQAPGKERELVASISDSDTSTYYADSVKGRFTISRDNAKNTVYLQMNSVKPEDTAVYYCNVDYWGQGTQVTVSS | low polyreactivity
19 | QVQLVESGGGLVQAGGSLRLICAASGRIFVYYAMGWYRQAPGKERELVAAISSGGSTYYADSVKGRFTISRDNAKNTVYLQMNSLKPEDTAVYYCAADPQRGRRIGYYWGQGTQVTVSS | low polyreactivity
20 | QVQLVESGGGLVQAGGSLRLICAASGRILDNYAMGWYRQAPGKERELVAAISASGASTYYADSVKGRFTISRDNAKNTVYLQMNSLKPEDTAVYYCNAAARYRWQYDYSLYEYGHWGQGTQVTVSS | high polyreactivity
21 | QVQLVESGGGLVQAGGSLRLICAASGRTFAGNAMGWYRQAPGKERELVAAISQGGGYTYYADSVKGRFTISRDNAKNNVYLQMNSLKPEDTAVYYCAAEIPRRWASFATLWYDYLGQGTQVTVSS | low polyreactivity

Row | Sequence | polyreactivity (PSR sort gate)
22 | QVQLVESGGGLVQAGGSLRLICAASGRTFGTHTMGWYRQAPGKERELVAAISSRGGTTYYADSVKGRFTISRDNAKNTVYLQMNSLKPEDTAVYYSNTGTRAIQRDGFEYWGQGTQVTVSS | low polyreactivity
23 | QVQLVESGGGLVQAGGSLRLICAASGRTFKRYVIGWYRQAPRKERELVATITRGGSTTYADSVKGRFTISRDNAKNTVFLQMNSLKPEDTAVYYCIADLYQVYLSDYWGQGTQVTVSS | high polyreactivity
24 | QVQLVESGGGLVQAGGSLRLICAASGRTFRYNAMGWYRQAPGKERELVASITSGGSTNYADSVKGRFTISRDHAKNTVYLQMNSLKPEDTAVYYCAKDHYYRYEDGDYWGQGTQVTVSS | low polyreactivity
25 | QVQLVESGGGLVQAGGSLRLICAASGRTFSFYARVWYRQAPGKETEFVAAITGSGGSTYYADSVKGRFTISRDNAKNTVYLKMNSLKPEDTAVYYCAKRSAWHTYRYGYWGQGTQVTVSS | high polyreactivity
26 | QVQLVESGGGLVQAGGSLRLICAASGRTFSGNTMGWYRQAPGKERELVAAITGRGGSTYYADSVKGRFTISRDNAKNTVYLQMNSLKPEDTAVYYCAALRYTFAGRFDYWGHGTQVTVSS | high polyreactivity
27 | QVQLVESGGGLVQAGGSLRLICAASGRTFSNAMGWYRQAPGKERELVADISSGGSPNYADSVKGRFTISRDNAKNTVYLEINSLKPEDTAVYYCAAFSGCLYGYSDDYWGQGTQVTVSS | low polyreactivity
28 | QVQLVESGGGLVQAGGSLRLICAASGRTFWNYAMGWYRQAPGKERELVAVIRFSDGSTYYADSVKGRFTISRDNAKNTVYLQMNSLKPEDTAVYYCAAKGPRRWGSGFDYWGQGTQVTVSS | low polyreactivity
29 | QVQLVESGGGLVQAGGSLRLICAASGRTFYNAMGWYRQAPGKERELVAAISSAGRTYYADSVKGRFTISRDNAKNTVYLQMNSLKPEDTAVYYCAATAFSYYPYHGDYWGQGTQVTVSS | high polyreactivity
30 | QVQLVESGGGLVQAGGSLRLICAASGRTFYSYAMAWYRQAPGQERELVAAISSGGTTYYADSVKGRFTISRDNAKNTVYLQMNSLKPEDTAVYYCATSRAWRYRSYYWGQGTQVTVSS | high polyreactivity
31 | QVQLVESGGGLVQAGGSLRLICAASGRTIDHYAMGWYRQAPGKERELVAAISTTGGSTYYADSVKGRFTISRDNAKNTVYLQMNSLKPEDTAVYYCAARGLRTGGYWGQGTQVTVSS | high polyreactivity
32 | QVQLVESGGGLVQAGGSLRLICAASGRTNGVYVMGLYRQAPGKERELVAAIRKGVGSTYYADSVKGRFTISRDNAKNTVYLQMNSLKPEETAVYYCAADTRHYRYGYWGQGTQVTVSS | low polyreactivity
33 | QVQLVESGGGLVQAGGSLRLICAASGSIFADYAMGWYRQAPGKERELVAAITGSGGRTYYADSVKGRFTISRDNAKNTVYLQMNSLKPEDTAVYYCAAYQVVWDPYTRYDYWGQGTQVTVSS | low polyreactivity
34 | QVQLVESGGGLVQAGGSLRLICAASGSIFAYYAMGWYRQAPGKERELVGTNYADSVKGRFTISRDNAKNTVYLQMNSLKPEDTAVYYCAASSRRYLWGFDYWGQGTQVTVSS | low polyreactivity
35 | QVQLVESGGGLVQAGGSLRLICAASGSIFCTYAMGWYRQAPGKERELVAAITTSVGRTYYADSVKGRFTISRDNAKNTVYLHMNSLKPDDTAVYYCYAVRGGRYGLDYWGQGTHVTVSS | high polyreactivity
36 | QVQLVESGGGLVQAGGSLRLICAASGSIFDKYARGWYRQEPGKERELVAAIDSGDTYYADSVKGRFTISRDNAKNTVYLQMNSLKPEDTAVYYCAADDVQYEYDYWGQGTQVTVSS | low polyreactivity
37 | QVQLVESGGGLVQAGGSLRLICAASGSIFFSYAMGWYRQAPGKERELVAAIDYSGGGTYYADSVMGRFTISRDNAKNTVYLQMNSLKPEDTAVYYCNSDTEVWADTFISYRALNYWGQGTQVTVSS | low polyreactivity
38 | QVQLVESGGGLVQAGGSLRLICAASGSIFFTYVMGWYRQSPGKERELVAAISSDDNTNYADSVKGRFTSSRDNAKNTVYLQMHSLKPEDTAVYYCNADTTRYPYYDYGYYDYDYWGQGTQVTVSS | low polyreactivity
39 | QVQLVESGGGLVQAGGSLRLICAASGSIFLGYAMGWYRPAPGKERELVAAISTSGGGTYYADSVKGRFTISRDNAKNTVYLQMNSLKPEDTAVYYCNAVSHYKYDWGQGTQVTVSS | low polyreactivity
40 | QVQLVESGGGLVQAGGSLRLICAASGSIFRGYTMGWYRQAPGKERELVATISWSGGSTYYADSVKGRFTISRDNAKNTVYLQMNSLKPEDTAVYYCAAVWYLGIPYDYWGQGTQVTVSS | high polyreactivity
41 | QVQLVESGGGLVQAGGSLRLICAASGSIFRRYAMGWYRQAPGKERELVARITIRGGSTYYADSVKGRFTISRDNAKNTVYLQMNSLKPEDTAVYYCNTVVPASSGGAYRRYYYLGQGTQVTVSS | high polyreactivity
